Laboratory results as given in the supplement of paper PMC9732359.
± gives the uncertainty stated by the source.

Experiment: protein stability index of a GFP-peptide fusion (yeast GPS) (PSI 1-4); higher = more stable; sorted into four equal gates, so the index is relative within each strain
Procedure, shortened: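 The protein stability index combines read frequencies across sorting gates, each weighted by its gate number and then summed. To obtain those frequencies, a pooled yeast library of GFP fusions to tiled 17-residue yeast protein peptides, on a plasmid also expressing Cherry, was grown to mid-log phase in leucine-free medium. The cells were sorted into four equal gates by GFP/Cherry ratio before plasmid amplification by PCR and Illumina sequencing.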

| Sequence | protein stability index (doa10∆) | protein stability index (pdr5∆) | protein stability index (san1∆) | protein stability index (ubr1∆) |
| --- | --- | --- | --- | --- |
| EEEVDIDMDKLNTVLIA [RRP43] | 3.35 ± 0.091 | 3.32 ± 0.095 | 3.02 ± 0.077 | 2.89 ± 0.068 |
| LHTARKILVLTGAGVST [SIR2] | 2.06 ± 0.052 | 1.56 ± 0.054 | 2.33 ± 0.082 | 2.29 ± 0.059 |
| EFIRCGCLIKNLPRTKA [RMP1] | 2.17 ± 0.087 | 2.82 ± 0.1 | 2.3 ± 0.11 | 2.53 ± 0.077 |
| IPHIFYSLHQIRKDPNN [CSE2] | 2.7 ± 0.11 | 2.61 ± 0.071 | 2.5 ± 0.058 | 2.67 ± 0.042 |
| QHLQFNGSSDASSLRFG [YDL088C/ASM4] | 2.24 ± 0.055 | 2.3 ± 0.049 | 1.99 ± 0.076 | 1.83 ± 0.038 |
| TPQSKGFVRNSFFSGLS [RPO31] | 3.01 ± 0.089 | 2.79 ± 0.074 | 3.13 ± 0.089 | 2.86 ± 0.046 |
| SFFSGLSPPEFLFHAIS [RPO31] | 2.07 ± 0.044 | 1.9 ± 0.05 | 1.93 ± 0.11 | 1.91 ± 0.041 |
| IDDLIHEIITVGPHFKQ [RPL7A] | 1.87 ± 0.1 | 2.32 ± 0.11 | – | 1.56 ± 0.064 |
| KKTCSSCGYPAAKTRSY [RPL37A] | 2.25 ± 0.27 | 3.17 ± 0.11 | 2.69 ± 0.093 | 3.27 ± 0.11 |
| QPSSSRYNGGNDNIGAN [SMB1] | 3.2 ± 0.091 | 3.49 ± 0.08 | 3.23 ± 0.049 | 3.37 ± 0.075 |
| MSMSSTVIKFRAGVCEY [RPN13] | – | 2.58 ± 0.18 | 2.22 ± 0.13 | – |
| NFFQAPQDYVLERVKRI [YML031W/NDC1] | 2.81 ± 0.064 | 2.62 ± 0.045 | 2.9 ± 0.068 | 2.77 ± 0.036 |
| IHQILLPTNPTLDKPNA [CSE2] | 2.56 ± 0.039 | 2.58 ± 0.041 | 2.37 ± 0.044 | 2.42 ± 0.034 |
| RKVVKPSSLNSDKIPYV [SRB4] | 2.74 ± 0.23 | 3.23 ± 0.13 | 3.06 ± 0.18 | 3.23 ± 0.12 |
| NITDNLFQELSKVVDDM [GRR1] | 2.69 ± 0.067 | 2.62 ± 0.083 | 2.28 ± 0.07 | 2.81 ± 0.098 |
| VMEYDVKFYEIFNFDQL [SRB8] | 1.97 ± 0.11 | 1.9 ± 0.12 | 1.66 ± 0.13 | 1.74 ± 0.1 |
| NYESVFTYNKFLLNQNK [YIL149C/MLP2] | 1.47 ± 0.045 | 1.92 ± 0.049 | 2.24 ± 0.1 | 2.26 ± 0.049 |
| LPGTNNNSNSNNNSSNE [SEC65] | 2.93 ± 0.051 | 2.69 ± 0.054 | 2.89 ± 0.042 | 2.8 ± 0.049 |
| ERKSKTYVITKNGKIYL [RET1] | 2.76 ± 0.051 | 2.54 ± 0.057 | 2.5 ± 0.059 | 2.47 ± 0.035 |
| LKDIEARIKEKAGVKES [RPT1] | 2.38 ± 0.27 | 3.42 ± 0.19 | 3.22 ± 0.11 | 3.31 ± 0.081 |
| LNSLSPQAILAKNSIID [SWI1] | 1.79 ± 0.033 | 1.72 ± 0.029 | 1.8 ± 0.044 | 1.75 ± 0.026 |
| LAGVLYESRNVAKRRFE [RRP6] | 2.76 ± 0.066 | 3.12 ± 0.061 | 2.93 ± 0.077 | 3.12 ± 0.047 |
| ITGEKLDTQLNDLRVSL [SMC1] | 1.3 ± 0.068 | 2 ± 0.076 | 1.58 ± 0.18 | 1.16 ± 0.032 |
| SDLRVLSGSISERIVDC [FAS1] | 2.95 ± 0.14 | 3.45 ± 0.15 | 3.41 ± 0.087 | 3.26 ± 0.098 |
| LNEIELDNLKLKELRID [GRR1] | 3.28 ± 0.097 | 3.09 ± 0.11 | 3.18 ± 0.054 | 2.85 ± 0.092 |
| VVRAASSLASQDVDFYK [RRP6] | 2.13 ± 0.066 | 2.04 ± 0.057 | 3.06 ± 0.16 | 1.48 ± 0.089 |
| IDALGTEFSKNDLEVGV [SCL1] | 2.67 ± 0.097 | 2.46 ± 0.11 | 2.49 ± 0.11 | 2.65 ± 0.08 |

| Sequence | protein stability index (doa10∆) | protein stability index (pdr5∆) | protein stability index (san1∆) | protein stability index (ubr1∆) |
| --- | --- | --- | --- | --- |
| TDNMSGRGLWNPSYPGM [YJL039C/NUP192] | 3.14 ± 0.26 | 3.11 ± 0.18 | – | 2.84 ± 0.26 |
| TKDPDEQQLFEIFAFGN [CSN9] | 3.18 ± 0.13 | 3.09 ± 0.088 | 3.17 ± 0.052 | 2.83 ± 0.053 |
| RAHRIGQKNEVRILRLI [SNF2] | 2.26 ± 0.048 | 1.79 ± 0.051 | 2.03 ± 0.058 | 2.23 ± 0.044 |
| TFSPSGKLGQIDYALTA [PRE8] | 2.61 ± 0.14 | 2.26 ± 0.092 | 2.67 ± 0.12 | 2.85 ± 0.064 |
| EIYYDPDPRSTVIPEDE [RPO21] | 3.04 ± 0.11 | 3.07 ± 0.21 | 3.23 ± 0.14 | 3.06 ± 0.098 |
| DQKFGVPVRSFKGHSHI [ASC1] | 3.11 ± 0.092 | 3.19 ± 0.064 | 2.99 ± 0.07 | 3.25 ± 0.058 |
| GNLYSKVMNNSFKLCTL [YML103C/NUP188] | 3.21 ± 0.21 | 2.8 ± 0.15 | 2.87 ± 0.14 | 3.07 ± 0.22 |
| LDMELAELDPSLRTPIA [SEC65] | 3.34 ± 0.14 | 3.26 ± 0.092 | 3.08 ± 0.081 | 3.06 ± 0.076 |
| QPEDLEPAEANEENDLD [RPB2] | 3.35 ± 0.17 | 3.15 ± 0.19 | 3.21 ± 0.13 | 3.42 ± 0.16 |
| DNNNTTNNDSNNKNNSI [MED2] | 2.83 ± 0.049 | 2.86 ± 0.045 | 2.96 ± 0.038 | 2.45 ± 0.034 |
| QDVLKGSSASSRKAHGL [POP1] | 3.27 ± 0.062 | 3.06 ± 0.064 | 3.1 ± 0.059 | 3.14 ± 0.067 |
| TTPYMTKYERARILGTR [RPO26] | 2.97 ± 0.14 | 3.3 ± 0.091 | 2.56 ± 0.18 | 3.45 ± 0.09 |
| TDAYLDQYLWYEADQRK [PRP8] | 3.18 ± 0.12 | 3.21 ± 0.17 | 3.02 ± 0.18 | 3.12 ± 0.081 |
| LITQLDGFDPRGNIKVM [RPT1] | – | 3.31 ± 0.22 | 3.15 ± 0.09 | 3.32 ± 0.21 |
| LKLEKLNTNRTFAQEKL [SMC3] | 2.84 ± 0.07 | 3.08 ± 0.069 | 2.83 ± 0.098 | 2.93 ± 0.057 |
| PTIEEDLTRVYKAISAQ [FAS2] | 2.22 ± 0.051 | 2.21 ± 0.041 | 2.75 ± 0.056 | 2.32 ± 0.042 |
| LGMMYEQKLIDQHVINI [YCS4] | 2.08 ± 0.061 | 2.28 ± 0.051 | 2.21 ± 0.064 | 2.08 ± 0.05 |
| HLVELLLVFRNADLDLD [YDL116W/NUP84] | 3.17 ± 0.12 | 2.46 ± 0.098 | 2.17 ± 0.099 | 2.5 ± 0.13 |
| QKGTIGITYRREDMPFT [RPB2] | 3.01 ± 0.1 | 2.68 ± 0.08 | 2.8 ± 0.08 | 2.9 ± 0.069 |
| DGENDKKEATKPAFSFG [YLR335W/NUP2] | 2.59 ± 0.048 | 2.21 ± 0.043 | 2.79 ± 0.041 | 2.9 ± 0.033 |
| KKIRNVPVRDGVTIEFS [RPL9A] | 2.59 ± 0.11 | 2.55 ± 0.15 | 2.43 ± 0.16 | 3.21 ± 0.092 |
| LYHLVIMKFQSLSDNDL [ECM29] | – | 1.65 ± 0.25 | – | 3.28 ± 0.25 |
| ALKRSYGIFGEGVEYSF [POP8] | 2.45 ± 0.092 | 2.71 ± 0.052 | 2.46 ± 0.097 | 2.86 ± 0.051 |
| VRDPWSIDFRTYRCSIK [SRB2] | 2.35 ± 0.11 | 2.41 ± 0.12 | 1.47 ± 0.13 | 2.31 ± 0.083 |
| SDDAAQFMKRFPMPYEN [ECM29] | 2.96 ± 0.068 | 3 ± 0.14 | 2.9 ± 0.082 | – |
| KVAKKRLGSFTRAKAKV [RPL36A] | – | 2.64 ± 0.21 | 3.1 ± 0.16 | 2.86 ± 0.29 |
